Measured values from patent publication US20080008713A1.

Target: mouse TNFR1 on L929 cells (mouse) (UniProt P25118)
Assay: cell-based or functional assay

mouse TNFR1 on L929 cells (mouse), sequence (P25118 30-454): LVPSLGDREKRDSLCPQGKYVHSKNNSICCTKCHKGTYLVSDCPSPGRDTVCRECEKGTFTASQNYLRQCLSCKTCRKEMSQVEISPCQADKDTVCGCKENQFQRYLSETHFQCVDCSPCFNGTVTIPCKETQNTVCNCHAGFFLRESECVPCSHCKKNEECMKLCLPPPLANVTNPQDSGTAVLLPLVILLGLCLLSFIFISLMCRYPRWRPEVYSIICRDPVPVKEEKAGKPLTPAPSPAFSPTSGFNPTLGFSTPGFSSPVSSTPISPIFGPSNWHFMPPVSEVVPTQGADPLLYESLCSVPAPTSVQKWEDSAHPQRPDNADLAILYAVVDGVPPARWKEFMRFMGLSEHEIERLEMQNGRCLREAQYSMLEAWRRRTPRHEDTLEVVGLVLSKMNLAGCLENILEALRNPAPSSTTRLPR

| Substance | ND50 of induced cytotoxicity, modified L929 assay without TNF-α [pM] | ND50 of cell killing, modified L929 assay without TNF-α [nM] |
| --- | --- | --- |
| anti-TNFR1 antibody AF-425-PB (R&D Systems) | 100 |  |
| anti-TNFR1 antibody MAB430 (R&D Systems) |  | 10 |
